Data on five molecules can be found in patent US20180057604A1 (Genentech, published 2018).

In experiment [1] the target is T1, cyno TfR extracellular domain (analogous construct to human TfR ecd) (cynomolgus monkey, UniProt Q5RDH6 87-760 (Pongo abelii entry)).
T1 construct: also called cynoTfR ecd
T1 chain: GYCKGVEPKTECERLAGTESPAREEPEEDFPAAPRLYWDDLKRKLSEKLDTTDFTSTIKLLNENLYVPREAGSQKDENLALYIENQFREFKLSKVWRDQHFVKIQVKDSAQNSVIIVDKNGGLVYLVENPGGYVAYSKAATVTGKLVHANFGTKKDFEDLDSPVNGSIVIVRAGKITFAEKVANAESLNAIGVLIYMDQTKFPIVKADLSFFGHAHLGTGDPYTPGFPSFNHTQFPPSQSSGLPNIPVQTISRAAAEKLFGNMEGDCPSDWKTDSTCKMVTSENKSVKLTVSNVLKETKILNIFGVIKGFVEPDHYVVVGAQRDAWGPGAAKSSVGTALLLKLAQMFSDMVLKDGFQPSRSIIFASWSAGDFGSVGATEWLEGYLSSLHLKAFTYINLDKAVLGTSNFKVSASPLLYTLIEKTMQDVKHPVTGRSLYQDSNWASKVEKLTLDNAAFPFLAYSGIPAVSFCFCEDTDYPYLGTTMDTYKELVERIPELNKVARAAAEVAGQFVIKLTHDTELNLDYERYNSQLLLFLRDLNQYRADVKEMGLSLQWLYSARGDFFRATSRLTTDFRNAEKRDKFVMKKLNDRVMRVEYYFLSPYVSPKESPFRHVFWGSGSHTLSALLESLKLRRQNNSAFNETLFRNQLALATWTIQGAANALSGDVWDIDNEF
The experiment is described as follows: SPR, KD on cyno TfR over KD on human TfR.

The target in experiment [2] is T2, human TfR extracellular domain with N-terminal His tag (human, UniProt P02786 89-760).
T2 construct: Biotinylated in some assays; also called huTfR; HuTfR
The experiment is described as follows: SPR, Fab.

The target of experiment [3] is T1, cyno TfR extracellular domain …. Nature of the experiment: SPR, Fab.
Experiment [4] deals with T2, human TfR extracellular domain with …. Nature of the experiment: SPR, TfR captured by anti-His, Fab injected.
The target of experiment [5] is T1, cyno TfR extracellular domain …. Nature of the experiment: SPR, TfR captured by anti-His, Fab injected.
Experiment [6] deals with T2, human TfR extracellular domain with …. Nature of the experiment: SPR, TfR captured by anti-His, Fab injected. The source holds these as a separate data set.
The target of experiment [7] is T1, cyno TfR extracellular domain …. The experiment is described as follows: SPR, TfR captured by anti-His, Fab injected.
The target is the same in experiment [8]. The experiment is described as follows: SPR, KD on cyno TfR over KD on human TfR.
In experiment [9] the target is T2, human TfR extracellular domain with …. Nature of the experiment: SPR, TfR captured by anti-His, Fab injected. This is another data set of the same source.
Experiment [10] has as its target T1, cyno TfR extracellular domain …. Nature of the experiment: SPR, TfR captured by anti-His, Fab injected.
Experiment [11] has the same target. The experiment is described as follows: SPR, KD on cyno TfR over KD on human TfR.
Experiment [12] concerns the target T2, human TfR extracellular domain with …. Nature of the experiment: ELISA, TfR-coated plate, IgG.
Experiment [13] has as its target T1, cyno TfR extracellular domain …. Nature of the experiment: ELISA, TfR-coated plate, IgG.
Experiment [14] addresses T2, human TfR extracellular domain with …. Nature of the experiment: ELISA, immobilized huTfR, with and without 6.3 uM holo-Tf.
For experiment [15] the target is unchanged. The experiment is described as follows: SPR SCK 1:1 fit, IgG.
Experiment [16] addresses T1, cyno TfR extracellular domain …. Nature of the experiment: SPR SCK 1:1 fit, IgG.
The target in experiment [17] is T2, human TfR extracellular domain with …. Nature of the experiment: SPR, IgG.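 Also: His-tagged TfR captured via immobilized anti-His antibody on a CM5 chip, antibody injected in 3-fold dilution series by single cycle kinetics, 1:1 Langmuir or steady-state fit.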
For experiment [18], the target named is T1, cyno TfR extracellular domain …. The experiment is described as follows: SPR, IgG.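 Also: His-tagged TfR captured via immobilized anti-His antibody on a CM5 chip, antibody injected in 3-fold dilution series by single cycle kinetics, 1:1 Langmuir or steady-state fit.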
Experiment [19] has as its target T2, human TfR extracellular domain with …. The experiment is described as follows: ELISA, IgG.
For experiment [20], the target named is T1, cyno TfR extracellular domain …. The experiment is described as follows: ELISA, IgG.
Experiment [21] concerns the target T3, murine BACE1 ECD.
T3 construct: analyte of the Octet assay (200 nM) and enzyme of the first short substrate assay
Nature of the experiment: Octet, pH 5.0.

The target in experiment [22] is T4, human BACE1 ECD.
T4 construct: analyte of the Octet assay (200 nM) and enzyme of the first short substrate assay; also called human BACE1 extracellular domain
T4 sequence (single chain, as listed by the source limits assumed): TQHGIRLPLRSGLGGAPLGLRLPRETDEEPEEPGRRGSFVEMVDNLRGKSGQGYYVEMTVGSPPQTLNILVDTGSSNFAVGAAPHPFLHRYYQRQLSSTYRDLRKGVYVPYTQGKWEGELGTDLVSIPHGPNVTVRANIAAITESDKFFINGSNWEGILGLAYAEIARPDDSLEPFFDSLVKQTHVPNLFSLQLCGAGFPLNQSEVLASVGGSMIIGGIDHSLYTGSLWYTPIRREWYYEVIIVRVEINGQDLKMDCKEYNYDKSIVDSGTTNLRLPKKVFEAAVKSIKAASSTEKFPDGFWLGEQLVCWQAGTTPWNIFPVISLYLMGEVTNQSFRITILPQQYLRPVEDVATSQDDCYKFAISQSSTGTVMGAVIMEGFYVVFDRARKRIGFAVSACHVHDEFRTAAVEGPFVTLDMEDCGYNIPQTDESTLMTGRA
Nature of the experiment: Octet, pH 5.0.

For experiment [23], the target named is T3, murine BACE1 ECD. The experiment is described as follows: Octet, pH 7.5.
T3 sequence (single chain, as listed by the source limits assumed): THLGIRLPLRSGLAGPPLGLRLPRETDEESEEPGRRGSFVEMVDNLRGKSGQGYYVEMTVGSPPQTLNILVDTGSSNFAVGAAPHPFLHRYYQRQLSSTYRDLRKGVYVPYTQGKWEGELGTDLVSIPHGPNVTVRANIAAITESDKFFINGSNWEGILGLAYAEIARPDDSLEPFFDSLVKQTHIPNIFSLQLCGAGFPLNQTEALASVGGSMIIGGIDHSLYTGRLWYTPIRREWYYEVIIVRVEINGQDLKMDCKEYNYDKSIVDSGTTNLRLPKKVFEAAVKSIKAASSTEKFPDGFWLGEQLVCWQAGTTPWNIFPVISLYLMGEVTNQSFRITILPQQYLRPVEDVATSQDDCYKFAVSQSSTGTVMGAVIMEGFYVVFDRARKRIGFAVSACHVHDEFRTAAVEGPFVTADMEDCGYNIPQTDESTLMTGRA
For experiment [24], the target named is T4, human BACE1 ECD. The experiment is described as follows: Octet, pH 7.5.
Experiment [25] addresses T5, BACE1 in primary mouse cortical neurons (mouse, UniProt P56818 46-501). The experiment is described as follows: cell-based or functional assay.
For experiment [26], the target named is T6, human BACE1 (R&D Systems) (human, UniProt P56817).
T6 construct: recombinant, commercial (R&D Systems)
T6 sequence (P56817 22-457 limits assumed): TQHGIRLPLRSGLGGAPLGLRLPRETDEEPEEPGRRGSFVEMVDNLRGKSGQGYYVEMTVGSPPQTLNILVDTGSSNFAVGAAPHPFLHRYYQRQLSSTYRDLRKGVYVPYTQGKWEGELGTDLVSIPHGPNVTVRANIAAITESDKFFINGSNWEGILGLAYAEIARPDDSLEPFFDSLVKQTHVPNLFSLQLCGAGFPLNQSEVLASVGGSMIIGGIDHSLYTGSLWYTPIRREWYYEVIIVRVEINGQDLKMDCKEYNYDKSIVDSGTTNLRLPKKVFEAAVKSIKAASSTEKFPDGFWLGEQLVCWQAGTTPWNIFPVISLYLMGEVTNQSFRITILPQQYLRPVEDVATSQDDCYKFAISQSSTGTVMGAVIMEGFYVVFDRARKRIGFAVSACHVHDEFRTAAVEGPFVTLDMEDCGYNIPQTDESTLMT
Nature of the experiment: SPR (Biacore).

The target of experiment [27] is BACE1 (HTRF long substrate and FRET short substrate assays of Example 9D). Nature of the experiment: cell-based or functional assay.
The target in experiment [28] is T6, human BACE1 (R&D Systems). The experiment is described as follows: SPR (Biacore), second run.
The target of experiment [29] is T6, human BACE1 (R&D Systems). The experiment is described as follows: SPR (Biacore). This is another data set of the same source.
In experiment [30] the target is T5, BACE1 in primary mouse cortical neurons. Nature of the experiment: cell-based or functional assay. This is another data set of the same source.
The target of experiment [31] is T3, murine BACE1 ECD. Nature of the experiment: Octet, pH 5.0, second run.
In experiment [32] the target is T4, human BACE1 ECD. The experiment is described as follows: Octet, pH 5.0, second run.
The target of experiment [33] is T3, murine BACE1 ECD. The experiment is described as follows: cell-based or functional assay.
In experiment [34] the target is T4, human BACE1 ECD. The experiment is described as follows: cell-based or functional assay.
Experiment [35] addresses T3, murine BACE1 ECD. Nature of the experiment: Octet, pH 5.0. This is another data set of the same source.
The target of experiment [36] is T4, human BACE1 ECD. The experiment is described as follows: Octet, pH 5.0. The source holds these as a separate data set.
For experiment [37], the target named is T3, murine BACE1 ECD. The experiment is described as follows: Octet, pH 7.5. This is another data set of the same source.
Experiment [38] has as its target T4, human BACE1 ECD. The experiment is described as follows: Octet, pH 7.5. The source holds these as a separate data set.
Experiment [39] has as its target T3, murine BACE1 ECD. Nature of the experiment: Octet, pH 7.5, second run.
Experiment [40] addresses T4, human BACE1 ECD. The experiment is described as follows: Octet, pH 7.5, second run.

Values joined by “and” are separate entries in the source; they are usually repeats but may differ in a detail not shown here. Equal values may be shown once. Read-outs that look alike come from different tables or passages of the source. Some results are limits rather than exact numbers.

T5 sequence (P56818 46-501): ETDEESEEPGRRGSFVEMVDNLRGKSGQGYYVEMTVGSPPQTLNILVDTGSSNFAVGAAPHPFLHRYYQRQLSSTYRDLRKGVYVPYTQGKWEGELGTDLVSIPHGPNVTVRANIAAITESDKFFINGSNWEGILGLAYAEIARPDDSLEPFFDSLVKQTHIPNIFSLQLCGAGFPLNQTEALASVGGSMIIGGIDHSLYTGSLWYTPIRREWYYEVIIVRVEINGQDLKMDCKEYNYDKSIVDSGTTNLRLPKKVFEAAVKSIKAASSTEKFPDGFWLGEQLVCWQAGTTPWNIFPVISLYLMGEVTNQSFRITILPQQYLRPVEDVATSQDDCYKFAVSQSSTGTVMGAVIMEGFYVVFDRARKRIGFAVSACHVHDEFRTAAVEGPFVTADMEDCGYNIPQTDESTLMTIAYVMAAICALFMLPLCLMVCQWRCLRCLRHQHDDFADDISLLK

B1: Hu15G11.v5.Fab (Fab, V domains shown)
VH: EVQLVQSGAEVKKPGASVKVSCKASGYTFTSYWMHWVRQAPGQRLEWIGEINPTNGRTNYIEKFKSRATLTVDKSASTAYMELSSLRSEDTAVYYCARGTRAYHYWGQGTMVTVSS
VL: DIQMTQSPSSLSASVGDRVTITCRASDNLYSNLAWYQQKPGKSPKLLVYDATNLADGVPSRFSGSGSGTDYTLTISSLQPEDFATYYCQHFWGTPLTFGQGTKVEIK
notes: Fab
As to B1, in experiment [1], the Cyno/human ratio came out at 4. Besides, the Kd was 4.7 nM in [2], 16 nM in [3] and 4.7 nM in experiment [4]. Also, the koff in [4] is 0.00406 s⁻¹ and 0.00364 s⁻¹; in [5], 0.0218 s⁻¹; in experiment [6], 0.00474 s⁻¹; in [7], 0.0127 s⁻¹; in experiment [9], 0.00474 s⁻¹; in experiment [10], 0.0127 s⁻¹. Besides, the kon is 456000 M⁻¹ s⁻¹ and 776000 M⁻¹ s⁻¹ in experiment [4]; 1.41e+06 M⁻¹ s⁻¹ in [5]; 674000 M⁻¹ s⁻¹ in experiment [6]; 451000 M⁻¹ s⁻¹ in experiment [7]; 674000 M⁻¹ s⁻¹ in [9]; 451000 M⁻¹ s⁻¹ in experiment [10]. Further, the Cy/hu ratio is 4 in experiment [8] and 3.4 in experiment [11].

B2: hu15G11.v5 IgG (antibody, V domains shown)
VH: EVQLVQSGAEVKKPGASVKVSCKASGYTFTSYWMHWVRQAPGQRLEWIGEINPTNGRTNYIEKFKSRATLTVDKSASTAYMELSSLRSEDTAVYYCARGTRAYHYWGQGTMVTVSS
VL: DIQMTQSPSSLSASVGDRVTITCRASDNLYSNLAWYQQKPGKSPKLLVYDATNLADGVPSRFSGSGSGTDYTLTISSLQPEDFATYYCQHFWGTPLTFGQGTKVEIK
notes: Human IgG (detected with anti-human Fc gamma); also called humanized 15G11.v5
For the molecule B2, the EC50 in [12] is 0.8 ng/mL; in experiment [13], 1.8 ng/mL; in [19], 16 ng/mL; in experiment [20], 20 ng/mL. The “EC50 (read off the curve)” value in [14] was about 5 ng/mL. The Kd is 3.3 nM in experiment [15], 12 nM in experiment [16], 3.33 nM in [17] and 11.8 nM in [18].

B3: 6310 (antibody, V domains shown)
VH: QLQLQESGPGLVKPSETLSLTCTVSGGSISWSSYYWSWIRQPPGKGLEWIGSIYRSGRTYYNPSLKSRVTISVDTSKNQFSLKLSSVTAADTAVYYCARVGHGINYFDLWGRGTLVTVSS
VL: EIVLTQSPATLSLSPGERATLSCRASQSVSSYLAWYQQKPGQAPRLLIYDASNRATGIPARFSGSGSGTDFTLTISSLEPEDFAVYYCQQSVTWPPRTFGGGTKVEIK
notes: anti-BACE1 IgG
Turning to B3, the Kd with murine BACE1 ECD [21] was 0.5 nM; with human BACE1 ECD [22], 0.44 nM; with murine BACE1 ECD [23], 0.47 nM; in the experiment with human BACE1 ECD [24] it was 0.46 nM; in experiment [26], 1.63 nM. Besides, in [25], the “IC50, Abeta x-40 in mouse cortical neurons” value turned out to be 0.17 nM. Besides, the “maximal % inhibition of Abeta x-40” value in [25] is 71%.

B4: 5884 (antibody, V domains shown)
VH: QVQLVQSGAEVKKPGSSVKVSCKASGGTFSGYGISWVRQAPGQGLEWMGNIIPGFGTANYAQKFQGRVTITADESTSTAYMELSSLRSEDTAVYYCARSGGTKYGMLDVWGQGTMVTVSS
VL: EIVMTQSPATLSVSPGERATLSCRASQSVSSNLAWYQQKPGQAPRLLIYGASTRATGIPARFSGSGSGTEFTLTISSLQSEDFAVYYCQQLILWPPRTFGGGTKVEIK
notes: anti-BACE1 IgG
Regarding B4, the “EC50, FRET short substrate” value in experiment [27] was 0.478 nM. Also, in experiment [27], the “EC50, HTRF long substrate” value was determined as 7.76 nM. For the same molecule, the equilibrium dissociation constant (Kd) is 5.23 nM in experiment [28]; 2.62 nM in experiment [29]; 1.3 nM in the experiment with murine BACE1 ECD [31]; 0.86 nM with human BACE1 ECD [32]; 2 nM with murine BACE1 ECD [35]; 1.4 nM with human BACE1 ECD [36]. Further, the equilibrium dissociation constant (Kd) with murine BACE1 ECD [37] was 1.3 nM; with human BACE1 ECD [38] it was 0.92 nM; in the experiment with murine BACE1 ECD [39], 0.49 nM; with human BACE1 ECD [40], 0.46 nM. The “IC50, Abeta x-40 in mouse cortical neurons” value in experiment [30] is 4.56 nM. Moreover, the “IC50, Abeta x-40 in mouse cortical neurons (5884*, second run)” value in experiment [30] worked out at 3.51 nM. In addition, the “maximal % inhibition of Abeta x-40” value in experiment [30] is 83%. Further, the “% inhibition of BACE1 activity, short FRET substrate” value with murine BACE1 ECD [33] was -243%; with human BACE1 ECD [34], -102%.

B5: 6303 (antibody, V domains shown)
VH: QVQLVQSGAEVKKPGSSVKVSCKASGGTLSGYAISWVRQAPGQGLEWMGNIIPGFGTANYAQKSQGRVTITADESTSTAYMELSSLRSEDTAVYYCARSGGTRYGMLDVWGQGTMVTVSS
VL: EIVMTQSPATLSVSPGERATLSCRASQSVSSNLAWYQQKPGQAPRLLIFGASTRATGIPARFSGSGSGTEFTLTISSLQSEDFAVYYCQQLLTWPPRTFGGGTKVEIK
notes: anti-BACE1 IgG
Consider B5, for which the dissociation constant (Kd) was under 0.32 nM in the experiment with murine BACE1 ECD [21]; under 0.26 nM with human BACE1 ECD [22]; under 0.35 nM in the experiment with murine BACE1 ECD [23]; under 0.32 nM in the experiment with human BACE1 ECD [24]; 3.09 nM in experiment [26]. The “IC50, Abeta x-40 in mouse cortical neurons” value in experiment [25] was 4.1 nM. In addition, the “maximal % inhibition of Abeta x-40” value in [25] turned out to be 76%.
